# Data taken from IntAct's records for PubMed 16282588.
# B1: G/T mismatch-specific thymine DNA glycosylase (Mus musculus), P56581 (parent)
# chain: MDAEAARSYSLEQVQALYSFPFQQMMAEVPNMAVTTGQQVPAVAPNMATVTEQQVPEDAPVQEPAPEAPKRRKRKPRAAEPQEPVEPKKPATSKKSGKSTKSKEKQEKITDAFKVKRKVDRFNGVSEAELLTKTLPDILTFNLDIVIIGINPGLMAAYKGHHYPGPGNHFWKCLFMSGLSEVQLNHMDDHTLPGKYGIGFTNMVERTTPGSKDLSSKEFREGGRILVQKLQKYQPRIAVFNGKCIYEIFSKEVFGVKVKNLEFGLQPHKIPDTETLCYVMPSSSARCAQFPRAQDKVHYYIKLKDLRDQLKGIERNADVQEVQYTFDLQLAQEDAKKMAVKEEKYDPGYEAAYGGAYGENPCNGEPCGIASNGLTAHSAEPRGEAAPSDVPNGQWMAQSFAEQIPSFNNCGTREQEEESHA
# Variants of: B1
# Settings: with ncoa1_human NCOA1, Q15788
# Chain of ncoa1_human NCOA1, Q15788 (Q15788 whole entry): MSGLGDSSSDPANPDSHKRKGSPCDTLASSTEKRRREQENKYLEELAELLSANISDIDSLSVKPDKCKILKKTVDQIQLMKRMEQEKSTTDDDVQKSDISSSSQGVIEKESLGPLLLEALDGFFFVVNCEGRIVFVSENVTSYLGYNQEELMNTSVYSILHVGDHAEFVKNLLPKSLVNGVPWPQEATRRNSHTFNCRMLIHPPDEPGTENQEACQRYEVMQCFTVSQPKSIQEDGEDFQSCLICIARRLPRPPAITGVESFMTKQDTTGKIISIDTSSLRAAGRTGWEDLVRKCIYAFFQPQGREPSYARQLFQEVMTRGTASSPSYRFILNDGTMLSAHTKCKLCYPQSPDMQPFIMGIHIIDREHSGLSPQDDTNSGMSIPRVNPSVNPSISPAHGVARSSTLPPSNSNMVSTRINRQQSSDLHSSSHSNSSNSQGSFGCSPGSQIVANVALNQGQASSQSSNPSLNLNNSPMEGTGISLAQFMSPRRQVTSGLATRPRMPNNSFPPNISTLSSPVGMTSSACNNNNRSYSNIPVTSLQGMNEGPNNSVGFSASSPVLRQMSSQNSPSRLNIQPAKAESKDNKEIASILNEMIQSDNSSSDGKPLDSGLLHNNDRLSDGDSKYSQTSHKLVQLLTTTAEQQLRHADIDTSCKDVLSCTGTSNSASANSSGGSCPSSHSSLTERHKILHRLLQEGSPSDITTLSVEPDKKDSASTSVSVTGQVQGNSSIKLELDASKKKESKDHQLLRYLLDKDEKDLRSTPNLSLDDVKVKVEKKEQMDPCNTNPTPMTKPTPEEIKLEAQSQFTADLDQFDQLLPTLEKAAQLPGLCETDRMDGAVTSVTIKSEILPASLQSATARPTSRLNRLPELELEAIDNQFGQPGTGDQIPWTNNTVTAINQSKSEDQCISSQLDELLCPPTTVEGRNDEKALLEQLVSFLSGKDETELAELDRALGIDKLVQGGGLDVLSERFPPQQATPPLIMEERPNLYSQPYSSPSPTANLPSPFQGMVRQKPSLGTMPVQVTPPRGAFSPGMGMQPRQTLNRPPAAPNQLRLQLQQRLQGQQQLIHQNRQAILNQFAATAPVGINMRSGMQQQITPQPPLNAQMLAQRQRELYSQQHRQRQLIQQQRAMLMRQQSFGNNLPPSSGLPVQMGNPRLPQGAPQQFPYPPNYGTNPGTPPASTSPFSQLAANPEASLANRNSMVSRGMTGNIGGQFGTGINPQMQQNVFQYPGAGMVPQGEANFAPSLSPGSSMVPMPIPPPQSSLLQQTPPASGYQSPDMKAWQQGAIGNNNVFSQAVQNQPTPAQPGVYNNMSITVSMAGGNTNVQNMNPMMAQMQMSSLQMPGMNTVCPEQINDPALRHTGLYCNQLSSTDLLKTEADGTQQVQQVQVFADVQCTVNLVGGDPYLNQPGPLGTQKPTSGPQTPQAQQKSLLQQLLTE
row,effect of a mutation on the interaction,Variant
1,decreasing interaction strength,MDAEAARSYSLEQVQALYSFPFQQMMAEVPNMAVTTGQQVPAVAPNMATVTEQQVPEDAPVQEPAPEAPKRRKRKPRAAEPQEPVEPKKPATSKKSGKSTKSKEKQEKITDAFKVKRKVDRFNGVSEAELLTKTLPDILTFNLDIVIIGINPGLMAAYKGHHYPGPGNHFWKCLFMSGLSEVQLNHMDDHTLPGKYGIGFTNMVERTTPGSKDLSSKEFREGGRILVQKLQKYQPRIAVFNGKCIYEIFSKEVFGVKVKNLEFGLQPHKIPDTETLCYVMPSSSARCAQFPRAQDKVHYYIKLKDLRDQLKGIERNADVQEVQYTFDLQLAQEDAKKMAVKEEKFDPGFEAAFGGAFGENPCNGEPCGIASNGLTAHSAEPRGEAAPSDVPNGQWMAQSFAEQIPSFNNCGTREQEEESHA [Y345F;Y349F;Y353F;Y357F]
2,decreasing interaction strength,MDAEAARSYSLEQVQALYSFPFQQMMAEVPNMAVTTGQQVPAVAPNMATVTEQQVPEDAPVQEPAPEAPKRRKRKPRAAEPQEPVEPKKPATSKKSGKSTKSKEKQEKITDAFKVKRKVDRFNGVSEAELLTKTLPDILTFNLDIVIIGINPGLMAAYKGHHYPGPGNHFWKCLFMSGLSEVQLNHMDDHTLPGKYGIGFTNMVERTTPGSKDLSSKEFREGGRILVQKLQKYQPRIAVFNGKCIYEIFSKEVFGVKVKNLEFGLQPHKIPDTETLCYVMPSSSARCAQFPRAQDKVHYYIKLKDLRDQLKGIERNADVQEVQYTFDLQLAQEDAKKMAVKEEKFDPGFEAAYGGAYGENPCNGEPCGIASNGLTAHSAEPRGEAAPSDVPNGQWMAQSFAEQIPSFNNCGTREQEEESHA [Y345F;Y349F]
3,decreasing interaction strength,MDAEAARSYSLEQVQALYSFPFQQMMAEVPNMAVTTGQQVPAVAPNMATVTEQQVPEDAPVQEPAPEAPKRRKRKPRAAEPQEPVEPKKPATSKKSGKSTKSKEKQEKITDAFKVKRKVDRFNGVSEAELLTKTLPDILTFNLDIVIIGINPGLMAAYKGHHYPGPGNHFWKCLFMSGLSEVQLNHMDDHTLPGKYGIGFTNMVERTTPGSKDLSSKEFREGGRILVQKLQKYQPRIAVFNGKCIYEIFSKEVFGVKVKNLEFGLQPHKIPDTETLCYVMPSSSARCAQFPRAQDKVHYYIKLKDLRDQLKGIERNADVQEVQYTFDLQLAQEDAKKMAVKEEKYDPGYEAAFGGAFGENPCNGEPCGIASNGLTAHSAEPRGEAAPSDVPNGQWMAQSFAEQIPSFNNCGTREQEEESHA [Y353F;Y357F]

# Continued, variant first:
row,Variant,effect of a mutation on the interaction
1,MDAEAARSYSLEQVQALYSFPFQQMMAEVPNMAVTTGQQVPAVAPNMATVTEQQVPEDAPVQEPAPEAPKRRKRKPRAAEPQEPVEPKKPATSKKSGKSTKSKEKQEKITDAFKVKRKVDRFNGVSEAELLTKTLPDILTFNLAIAAIGINPGLMAAYKGHHYPGPGNHFWKCLFMSGLSEVQLNHMDDHTLPGKYGIGFTNMVERTTPGSKDLSSKEFREGGRILVQKLQKYQPRIAVFNGKCIYEIFSKEVFGVKVKNLEFGLQPHKIPDTETLCYVMPSSSARCAQFPRAQDKVHYYIKLKDLRDQLKGIERNADVQEVQYTFDLQLAQEDAKKMAVKEEKYDPGYEAAYGGAYGENPCNGEPCGIASNGLTAHSAEPRGEAAPSDVPNGQWMAQSFAEQIPSFNNCGTREQEEESHA [D144A;V146A;I147A],with no effect
2,MDAEAARSYSLEQVQALYSFPFQQMMAEVPNMAVTTGQQVPAVAPNMATVTEQQVPEDAPVQEPAPEAPKRRKRKPRAAEPQEPVEPKKPATSKKSGKSTKSKEKQEKITDAFKVKRKVDRFNGVSEAELLTKTLPDILTFNLDIVIIGIAPGLMAAYKGHHYPGPGNHFWKCLFMSGLSEVQLNHMDDHTLPGKYGIGFTNMVERTTPGSKDLSSKEFREGGRILVQKLQKYQPRIAVFNGKCIYEIFSKEVFGVKVKNLEFGLQPHKIPDTETLCYVMPSSSARCAQFPRAQDKVHYYIKLKDLRDQLKGIERNADVQEVQYTFDLQLAQEDAKKMAVKEEKYDPGYEAAYGGAYGENPCNGEPCGIASNGLTAHSAEPRGEAAPSDVPNGQWMAQSFAEQIPSFNNCGTREQEEESHA [N151A],with no effect

# Variants of: B1
# Settings: with ncoa1_human NCOA1, Q15788
# Remark: another data set of the same source
row,Variant,effect of a mutation on the interaction
1,MDAEAARSYSLEQVQALYSFPFQQMMAEVPNMAVTTGQQVPAVAPNMATVTEQQVPEDAPVQEPAPEAPKRRKRKPRAAEPQEPVEPKKPATSKKSGKSTKSKEKQEKITDAFKVKRKVDRFNGVSEAELLTKTLPDILTFNLDIVIIGINPGLMAAYKGHHYPGPGNHFWKCLFMSGLSEVQLNHMDDHTLPGKYGIGFTNMVERTTPGSKDLSSKEFREGGRILVQKLQKYQPRIAVFNGKCIYEIFSKEVFGVKVKNLEFGLQPHKIPDTETLCYVMPSSSARCAQFPRAQDKVHYYIKLKDLRDQLKGIERNADVQEVQYTFDLQLAQEDAKKMAVKEEKADPGAEAAYGGAYGENPCNGEPCGIASNGLTAHSAEPRGEAAPSDVPNGQWMAQSFAEQIPSFNNCGTREQEEESHA [Y345A;Y349A],decreasing interaction strength
2,MDAEAARSYSLEQVQALYSFPFQQMMAEVPNMAVTTGQQVPAVAPNMATVTEQQVPEDAPVQEPAPEAPKRRKRKPRAAEPQEPVEPKKPATSKKSGKSTKSKEKQEKITDAFKVKRKVDRFNGVSEAELLTKTLPDILTFNLDIVIIGINPGLMAAYKGHHYPGPGNHFWKCLFMSGLSEVQLNHMDDHTLPGKYGIGFTNMVERTTPGSKDLSSKEFREGGRILVQKLQKYQPRIAVFNGKCIYEIFSKEVFGVKVKNLEFGLQPHKIPDTETLCYVMPSSSARCAQFPRAQDKVHYYIKLKDLRDQLKGIERNADVQEVQYTFDLQLAQEDAKKMAVKEEKADPGAEAAAGGAAGENPCNGEPCGIASNGLTAHSAEPRGEAAPSDVPNGQWMAQSFAEQIPSFNNCGTREQEEESHA [Y345A;Y349A;Y353A;Y357A],decreasing interaction strength
3,MDAEAARSYSLEQVQALYSFPFQQMMAEVPNMAVTTGQQVPAVAPNMATVTEQQVPEDAPVQEPAPEAPKRRKRKPRAAEPQEPVEPKKPATSKKSGKSTKSKEKQEKITDAFKVKRKVDRFNGVSEAELLTKTLPDILTFNLDIVIIGINPGLMAAYKGHHYPGPGNHFWKCLFMSGLSEVQLNHMDDHTLPGKYGIGFTNMVERTTPGSKDLSSKEFREGGRILVQKLQKYQPRIAVFNGKCIYEIFSKEVFGVKVKNLEFGLQPHKIPDTETLCYVMPSSSARCAQFPRAQDKVHYYIKLKDLRDQLKGIERNADVQEVQYTFDLQLAQEDAKKMAVKEEKYDPGYEAAAGGAAGENPCNGEPCGIASNGLTAHSAEPRGEAAPSDVPNGQWMAQSFAEQIPSFNNCGTREQEEESHA [Y353A;Y357A],decreasing interaction strength
